Patent publication US20240066131A1 (Protagonist Therapeutics, Inc., priority 2020, published 2024)
Starred links: 1 amine or outer side, 2 acyl side, 3 side chain; linkers in the order of their positions; H or OH if unused. Positions of bridges follow the written chain, without caps; N, C: chain ends. Non-standard residues stand in square brackets, D forms with d. Residues, ends and D or L forms follow the SMILES beside them. Groups on a side chain read outwards from the residue. *: point of attachment. PEG12 = NCCOCCOCCOCCOCCOCCOCCOCCOCCOCCOCCOCCOCCC(=O)O; Ala(1H-tetrazol-5-yl) = N[C@@H](Cc1nnn[nH]1)C(=O)O; C18 diacid = O=C(O)CCCCCCCCCCCCCCCCC(=O)*; Dip = N[C@H](C(=O)O)C(c1ccccc1)c1ccccc1; γGlu = O=C(O)[C@H](CCC(=O)[*:2])N[*:1]; Gly(NCH2CH2Ph) = O=C(O)CNCCc1ccccc1; Palmitoyl = CCCCCCCCCCCCCCCC(=O)*; β3hF = N[C@H](CC(=O)O)Cc1ccccc1; PEG4 = NCCOCCOCCOCCOCCC(=O)O; Lauroyl = CCCCCCCCCCCC(=O)*; Decanoyl = CCCCCCCCCC(=O)*; Isovaleryl = CC(C)CC(=O)*; Abu = CC[C@H](N)C(=O)O; AEEA = NCCOCCOCC(=O)O; NHBn = c1ccc(CN*)cc1; Ahx = NCCCCCC(=O)O; NHPr = CCCN*

T1: ferroportin (Homo sapiens, UniProt Q9NP59)
T1 sequence (Q9NP59 1-571): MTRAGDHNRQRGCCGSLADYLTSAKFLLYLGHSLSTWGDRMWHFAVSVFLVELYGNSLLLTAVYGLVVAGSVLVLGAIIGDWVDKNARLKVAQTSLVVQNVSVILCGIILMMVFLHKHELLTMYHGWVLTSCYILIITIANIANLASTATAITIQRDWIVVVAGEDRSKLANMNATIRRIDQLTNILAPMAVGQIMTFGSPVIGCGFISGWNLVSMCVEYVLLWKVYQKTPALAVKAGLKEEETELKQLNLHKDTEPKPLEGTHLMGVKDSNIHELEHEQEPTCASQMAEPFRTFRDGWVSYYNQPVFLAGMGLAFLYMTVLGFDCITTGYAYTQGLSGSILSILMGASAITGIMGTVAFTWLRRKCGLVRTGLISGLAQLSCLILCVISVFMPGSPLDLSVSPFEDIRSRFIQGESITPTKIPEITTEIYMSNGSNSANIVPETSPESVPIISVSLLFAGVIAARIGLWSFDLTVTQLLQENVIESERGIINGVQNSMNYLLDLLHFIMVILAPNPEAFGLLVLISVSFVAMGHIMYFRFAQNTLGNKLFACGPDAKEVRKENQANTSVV

T2: ferroportin endogenously expressed on T47D cells (HTB 133, ATCC) (human, UniProt Q9NP59 1-571)
T2 sequence (looked up): T1 sequence (Q9NP59 1-571)

B1: Isovaleric Acid-K-T-H-[Dpa]-P-A-I-E-[bhPhe]-[Lys(Ahx_Palm)]-NH2 (peptide)
peptide: Isovaleryl-KTH[Dip]PAIE[β3hF]K([Ahx-Palmitoyl])-NH2
modifications: lactam 1-8
SMILES: CCCCCCCCCCCCCCCC(=O)NCCCCCC(=O)NCCCC[C@H](NC(=O)C[C@H](Cc1ccccc1)NC(=O)[C@@H]1CCC(=O)NCCCC[C@H](NC(=O)CC(C)C)C(=O)N[C@@H]([C@@H](C)O)C(=O)N[C@@H](Cc2c[nH]cn2)C(=O)N[C@@H](C(c2ccccc2)c2ccccc2)C(=O)N2CCC[C@H]2C(=O)N[C@@H](C)C(=O)N[C@@H]([C@@H](C)CC)C(=O)N1)C(N)=O
B2: Isovaleric Acid-E-T-H-[Dpa]-P-A-I-[123 Triazole]-[bhPhe]-[Lys(Ahx_Palm)]-[(D)Lys]-NH2 (peptide)
peptide: XETHXPAIXXXX
modifications: N-term Isovaleric Acid; Dpa4; 123 Triazole8; bhPhe9; Lys(Ahx_Palm)10; (D)Lys11; C-term NH2; cyclized A-123Triazole (side-chain C of alanine and C5 of triazole joined by a C-C bond)
B3: Isovaleric Acid-K-T-H-[Dpa]-P-A-I-E-[Lys(Ahx_Palm)]-NH2 (peptide)
peptide: Isovaleryl-KTH[Dip]PAIEK([Ahx-Palmitoyl])-NH2
modifications: lactam 1-8
SMILES: CCCCCCCCCCCCCCCC(=O)NCCCCCC(=O)NCCCC[C@H](NC(=O)[C@@H]1CCC(=O)NCCCC[C@H](NC(=O)CC(C)C)C(=O)N[C@@H]([C@@H](C)O)C(=O)N[C@@H](Cc2c[nH]cn2)C(=O)N[C@@H](C(c2ccccc2)c2ccccc2)C(=O)N2CCC[C@H]2C(=O)N[C@@H](C)C(=O)N[C@@H]([C@@H](C)CC)C(=O)N1)C(N)=O
B4: Isovaleric Acid-E-T-H-[Dpa]-P-A-I-[Lys(1Peg2_1Peg2_Ahx_C18_Diacid)]-[bhPhe]-NH2 (peptide)
peptide: Isovaleryl-ETH[Dip]PAIK([AEEA-AEEA-Ahx-C18 diacid])[β3hF]-NH2
SMILES: CC[C@H](C)[C@H](NC(=O)[C@H](C)NC(=O)[C@@H]1CCCN1C(=O)[C@@H](NC(=O)[C@H](Cc1c[nH]cn1)NC(=O)[C@@H](NC(=O)[C@H](CCC(=O)O)NC(=O)CC(C)C)[C@@H](C)O)C(c1ccccc1)c1ccccc1)C(=O)N[C@@H](CCCCNC(=O)COCCOCCNC(=O)COCCOCCNC(=O)CCCCCNC(=O)CCCCCCCCCCCCCCCCC(=O)O)C(=O)N[C@H](CC(N)=O)Cc1ccccc1

molecular target: T1, ferroportin; assay: FPN activity assay: internalization/degradation of ferroportin-GFP in stably transfected HEK293 cells (loss of GFP fluorescence); type: cell-based; settings: Table 6A; read-out: FPN EC50
Experimental: Following internalization, the ferroporin protein is degraded.
A retro inverse peptide is a peptide with a reversed sequence in all D amino acids. An example is that Hy-Glu-Thr-His-NH2 becomes Hy-DHis-DThr-DGlu-NH2. The EC50 of these reference compounds for ferroportin internalization/degradation was determined according to the FPN activity assay described above. These peptides served as control standards.

| DC50 | Molecule |
| --- | --- |
| 86.8 nM | CCCCCCCCCCCCCCCC(=O)NCCCCCC(=O)NCCCC[C@H](NC(=O)[C@@H](NC(=O)[C@@H](NC(=O)[C@@H]1CCCN1C(=O)[C@@H](NC(=O)[C@H](Cc1c[nH]cn1)NC(=O)[C@@H](NC(=O)[C@H](Cc1nn[nH]n1)NC(=O)CC(C)C)[C@@H](C)O)C(c1ccccc1)c1ccccc1)[C@@H](C)CC)[C@@H](C)CC)C(=O)N[C@H](CC(N)=O)Cc1ccccc1 [compound 113] (Isovaleryl-[Ala(1H-tetrazol-5-yl)]TH[Dip]PIIK([Ahx-Palmitoyl])[β3hF]-NH2) |
| 32.7 nM | CCCCCCCCCCCCCCCC(=O)NCCOCCOCCOCCOCCC(=O)NCCCC[C@H](NC(=O)[C@@H](NC(=O)[C@H](C)NC(=O)[C@@H]1CCCN1C(=O)[C@@H](NC(=O)[C@H](Cc1c[nH]cn1)NC(=O)[C@@H](NC(=O)[C@H](CCC(=O)O)NC(=O)CC(C)C)[C@@H](C)O)C(c1ccccc1)c1ccccc1)[C@@H](C)CC)C(=O)N[C@H](CC(N)=O)Cc1ccccc1 [compound 95] (Isovaleryl-ETH[Dip]PAIK([PEG4-Palmitoyl])[β3hF]-NH2) |
| 31.9 nM | CCCCCCCCCCCCCCCC(=O)NCCCCCC(=O)NCCCC[C@H](NC(=O)[C@@H](NC(=O)[C@H](C)NC(=O)[C@@H]1CCCN1C(=O)[C@@H](NC(=O)[C@H](Cc1c[nH]cn1)NC(=O)[C@@H](NC(=O)[C@H](CCC(=O)O)NC(=O)CC(C)C)[C@@H](C)O)C(c1ccccc1)c1ccccc1)[C@@H](C)CC)C(=O)N(CCc1ccccc1)CC(N)=O [compound 93] (Isovaleryl-ETH[Dip]PAIK([Ahx-Palmitoyl])[Gly(NCH2CH2Ph)]-NH2) |
| 24.9 nM | CCCCCCCCCCCCCCCC(=O)NCCCCCC(=O)NCCCC[C@H](NC(=O)C[C@H](Cc1ccccc1)NC(=O)[C@@H](CCCCN)NC(=O)[C@@H](NC(=O)[C@H](C)NC(=O)[C@@H]1CCCN1C(=O)[C@@H](NC(=O)[C@H](Cc1c[nH]cn1)NC(=O)[C@@H](NC(=O)[C@H](CCC(=O)O)NC(=O)CC(C)C)[C@@H](C)O)C(c1ccccc1)c1ccccc1)[C@@H](C)CC)C(N)=O [compound 3] (Isovaleryl-ETH[Dip]PAI[dK][β3hF]K([Ahx-Palmitoyl])-NH2) |
| 109 nM | CCCCCCCCCCCC(=O)NCCCCCC(=O)NCCCC[C@H](NC(=O)[C@@H](NC(=O)[C@H](C)NC(=O)[C@@H]1CCCN1C(=O)[C@@H](NC(=O)[C@H](Cc1c[nH]cn1)NC(=O)[C@@H](NC(=O)[C@H](CCC(=O)O)NC(=O)CC(C)C)[C@@H](C)O)C(c1ccccc1)c1ccccc1)[C@@H](C)CC)C(=O)N[C@H](CC(N)=O)Cc1ccccc1 [compound 105] (Isovaleryl-ETH[Dip]PAIK([Ahx-Lauroyl])[β3hF]-NH2) |
| 46.3 nM | CCCCCCCCCCCCCCCC(=O)NCCCCCC(=O)NCCCC[C@H](NC(=O)C[C@H](Cc1ccccc1)NC(=O)[C@@H](CCCCN)NC(=O)[C@@H](NC(=O)[C@H](CO)NC(=O)[C@@H]1CCCN1C(=O)[C@@H](NC(=O)[C@H](Cc1c[nH]cn1)NC(=O)[C@@H](NC(=O)[C@H](CCC(=O)O)NC(=O)CC(C)C)[C@@H](C)O)C(c1ccccc1)c1ccccc1)[C@@H](C)CC)C(N)=O [compound 20] (Isovaleryl-ETH[Dip]PSI[dK][β3hF]K([Ahx-Palmitoyl])-NH2) |
| > 5000 nM | CC[C@H](C)[C@H](NC(=O)[C@@H](NC(=O)[C@@H]1CCCN1C(=O)[C@@H](NC(=O)[C@H](Cc1c[nH]cn1)NC(=O)[C@@H](NC(=O)[C@H](CCC(=O)O)NC(=O)CNCC(=O)O)[C@@H](C)O)C(c1ccccc1)c1ccccc1)[C@@H](C)CC)C(=O)N[C@@H](CCCCNC(C)=O)C(=O)N[C@H](CC(N)=O)Cc1ccccc1 [compound 71] |
| 162 nM | CCCCCCCCCCCCCCCC(=O)NCCCCCC(=O)NCCCC[C@H](NC(=O)[C@@H](NC(=O)[C@H](C)NC(=O)[C@@H]1CCCN1C(=O)[C@@H](NC(=O)[C@H](Cc1c[nH]cn1)NC(=O)[C@@H](NC(=O)[C@H](CCC(=O)O)NC(=O)CC(C)C)[C@@H](C)O)C(c1ccccc1)c1ccccc1)[C@@H](C)CC)C(=O)NCc1ccccc1 [compound 52] (Isovaleryl-ETH[Dip]PAIK([Ahx-Palmitoyl])-NHBn) |

same assay, conditions: ferroportin-GFP HEK293 cells, compound incubated at least 18 hours; read-out: FPN IC50

| DC50 | Molecule |
| --- | --- |
| 654 nM | CCCCCCCCCCCCCCCC(=O)NCCCCCC(=O)NCCCC[C@H](NC(=O)CC(C)C)C(=O)N[C@H](C(=O)N[C@@H](Cc1c[nH]cn1)C(=O)N[C@H](C(=O)N1CCC[C@H]1C(=O)N[C@@H](C)C(=O)N[C@H](C(=O)N[C@H](CCCCN)C(=O)N[C@H](CC(N)=O)Cc1ccccc1)[C@@H](C)CC)C(c1ccccc1)c1ccccc1)[C@@H](C)O [compound 203] (Isovaleryl-K([Ahx-Palmitoyl])TH[Dip]PAI[dK][β3hF]-NH2) |
| > 3000 nM | CCCCCCCCCC(=O)NCCCCCC(=O)NCCCC[C@H](NC(=O)[C@@H](NC(=O)[C@H](C)NC(=O)[C@@H]1CCCN1C(=O)[C@H](Cc1ccccc1)NC(=O)[C@H](Cc1c[nH]cn1)NC(=O)[C@@H](NC(=O)[C@H](CCC(=O)O)NC(=O)CC(C)C)[C@@H](C)O)[C@@H](C)CC)C(=O)N[C@@H](Cc1ccccc1)C(=O)N[C@@H](CCC(=O)O)C(=O)N1CCC[C@H]1C(=O)N[C@@H](CCCNC(=N)N)C(=O)N[C@@H](CO)C(=O)N[C@@H](CCCCN)C(=O)NCC(=O)N[C@@H](C)C(=O)N[C@@H](CCCCN)C(N)=O [compound 244] (Isovaleryl-ETHFPAIK([Ahx-Decanoyl])FEPRSKGAK-NH2) |
| > 3000 nM | CCCNC(=O)[C@H](CCCCNC(=O)COCCOCCNC(=O)COCCOCCNC(=O)CC[C@H](NC(=O)CCCCCCCCCCCCCCCCC(=O)O)C(=O)O)NC(=O)[C@@H](NC(=O)[C@H](Cc1c[nH]cn1)NC(=O)[C@@H](NC(=O)[C@H](CC(C)C)NC(=O)CC(C)C)[C@@H](C)O)C(c1ccccc1)c1ccccc1 [compound 228] (Isovaleryl-LTH[Dip]K([AEEA-AEEA-γGlu-C18 diacid])-NHPr) |

molecular target: T2, ferroportin endogenously expressed on …; assay: cell-based or functional assay; settings: not given

| T47D MSA IC50 | Molecule |
| --- | --- |
| 3.53 nM | B1 |
| 10.8 nM | B2 |
| 388 nM | Isovaleryl-ETH[Dip]P[Abu]IK([PEG12-C18 diacid])[β3hF][dK]C-NH2 (thioether 6-11) [Isovaleric Acid-E-T-H-[Dpa]-P-Abu-I-[Lys(PEG12_C18_Diacid)]-[bhPhe]-[(D)Lys]-[Cys]-NH2] |
| 179 nM | XETHXPXX (N-term Isovaleric Acid; Dpa4; Lys(IsoGlu_Palm)6; C-term N_Butyl_Phe) [Isovaleric Acid-E-T-H-[Dpa]-P-[Lys(IsoGlu_Palm-N_Butyl_Phe] |
| 46.1 nM | XETHXPXX (N-term Isovaleric Acid; Dpa4; Lys(bAla_Palm)6; C-term N_Butyl_Phe) [Isovaleric Acid-E-T-H-[Dpa]-P-[Lys(bAla_Palm-N_Butyl_Phe] |
| 12.7 nM | XETHXPXX (N-term Isovaleric Acid; Dpa4; Lys(Ahx_Palm)6; C-term N_Pentyl_Phe) [Isovaleric Acid-E-T-H-[Dpa]-P-[Lys(Ahx_Palm)]-N_Pentyl_Phe] |
| 10.1 nM | XETHXPXX (N-term Butyric_Acid; Dpa4; Lys(Ahx_Palm)6; C-term N_Butyl_Phe) [Butyric_Acid-E-T-H-[Dpa]-P-[Lys(Ahx_Palm)]-N_Butyl_Phe] |
| 31.2 nM | B3 |
| 15.3 nM | XETHXPXX (N-term Isovaleric Acid; Dpa4; Lys(Ahx_Palm)6; C-term N_Propyl_Phe) [Isovaleric Acid-E-T-H-[Dpa]-P-[Lys(Ahx_Palm)]-N_Propyl_Phe] |
| 24.4 nM | XETHXPXX (N-term Isovaleric Acid; Dpa4; Lys(Ahx_Palm)6; C-term N_Ethyl_Nap) [Isovaleric Acid-E-T-H-[Dpa]-P-[Lys(Ahx_Palm)]-N_Ethyl_Nap] |
| 143 nM | B4 |
| 54.3 nM | XETHXPXX (N-term Cyclohexanoic_Acid; Dpa4; Lys(Ahx_Palm)6; C-term N_Butyl_Phe) [Cyclohexanoic_Acid-E-T-H-[Dpa]-P-[Lys(Ahx_Palm)]-N_Butyl_Phe] |
